Reference: paper PMC6684607

Experiments:
[1] = target: Recombinantly expressed TNF domain of Spodoptera frugiperda Eiger (SfEiger) (Spodoptera frugiperda); assay: SEC; Superdex 200 Increase 10/300 GL; elution volume compared with a protein standard
[2] = target: TNF domain of Spodoptera frugiperda Eiger (SfEiger), endogenous soluble form released from Sf9 cells (Spodoptera frugiperda (endogenous in Sf9)); assay: crystal structure; X-ray, 1.7 A, space group R 3:H, one protomer in the asymmetric unit, trimer generated by the crystallographic threefold axis; crystal grown at 298 K in MORPHEUS condition 1-26

Row | stoichiometry N [1] | stoichiometry N [2] | Substance
1 | 3 |  | Recombinantly expressed TNF domain of Spodoptera frugiperda Eiger (SfEiger) (domain or fragment)
2 |  | 3 | TNF domain of Spodoptera frugiperda Eiger (SfEiger), endogenous soluble form released from Sf9 cells (domain or fragment)
